Reference: publication PMC5389570 (Nucleic Acids Research, 2017)

Molecular target: heterotrimeric human RPA (RPA70, RPA32, RPA14) (human, UniProt P27694;P15927;P35244)
Assay: SPR

Sequence of heterotrimeric human RPA (RPA70, RPA32, RPA14) (P27694 whole entry, chain 1 of 3): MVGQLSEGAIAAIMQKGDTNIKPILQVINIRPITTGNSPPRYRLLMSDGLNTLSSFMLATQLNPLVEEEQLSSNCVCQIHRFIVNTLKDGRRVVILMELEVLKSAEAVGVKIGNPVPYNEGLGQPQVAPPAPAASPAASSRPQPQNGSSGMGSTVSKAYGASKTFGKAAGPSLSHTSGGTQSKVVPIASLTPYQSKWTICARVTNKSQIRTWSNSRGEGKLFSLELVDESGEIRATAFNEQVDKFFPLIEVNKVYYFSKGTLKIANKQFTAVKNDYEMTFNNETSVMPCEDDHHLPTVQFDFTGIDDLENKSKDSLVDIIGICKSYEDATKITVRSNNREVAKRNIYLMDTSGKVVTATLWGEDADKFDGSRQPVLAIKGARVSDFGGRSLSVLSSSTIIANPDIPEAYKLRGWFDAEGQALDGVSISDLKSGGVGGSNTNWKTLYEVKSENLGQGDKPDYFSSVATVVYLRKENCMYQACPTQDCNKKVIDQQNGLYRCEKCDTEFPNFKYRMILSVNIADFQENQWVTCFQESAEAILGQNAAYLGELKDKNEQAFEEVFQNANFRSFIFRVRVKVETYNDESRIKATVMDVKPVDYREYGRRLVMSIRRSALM
Sequence of heterotrimeric human RPA (RPA70, RPA32, RPA14) (P15927 whole entry, chain 2 of 3): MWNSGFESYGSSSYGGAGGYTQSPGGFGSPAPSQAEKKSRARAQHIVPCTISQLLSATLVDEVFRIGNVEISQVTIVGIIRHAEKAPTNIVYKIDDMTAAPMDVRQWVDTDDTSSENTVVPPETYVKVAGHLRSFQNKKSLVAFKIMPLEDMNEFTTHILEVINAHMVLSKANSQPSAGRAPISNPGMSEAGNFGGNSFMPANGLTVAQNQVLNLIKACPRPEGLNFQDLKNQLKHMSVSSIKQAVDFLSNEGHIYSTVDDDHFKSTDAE
Sequence of heterotrimeric human RPA (RPA70, RPA32, RPA14) (P35244 whole entry, chain 3 of 3): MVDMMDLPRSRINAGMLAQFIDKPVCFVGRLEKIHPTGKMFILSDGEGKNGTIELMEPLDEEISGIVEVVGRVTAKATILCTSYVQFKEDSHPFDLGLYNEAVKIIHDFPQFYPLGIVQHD

- Kd: 115 nM
B1: human Cdc45 (cell division cycle protein 45), recombinant, C-terminal His6 tag (natural protein)
chain: MFVSDFRKEFYEVVQSQRVLLFVASDVDALCACKILQALFQCDHVQYTLVPVSGWQELETAFLEHKEQFHYFILINCGANVDLLDILQPDEDTIFFVCDTHRPVNVVNVYNDTQIKLLIKQDDDLEVPAYEDIFRDEEEDEEHSGNDSDGSEPSEKRTRLEEEIVEQTMRRRQRREWEARRRDILFDYEQYEYHGTSSAMVMFELAWMLSKDLNDMLWWAIVGLTDQWVQDKITQMKYVTDVGVLQRHVSRHNHRNEDEENTLSVDCTRISFEYDLRLVLYQHWSLHDSLCNTSYTAARFKLWSVHGQKRLQEFLADMGLPLKQVKQKFQAMDISLKENLREMIEESANKFGMKDMRVQTFSIHFGFKHKFLASDVVFATMSLMESPEKDGSGTDHFIQALDSLSRSNLDKLYHGLELAKKQLRATQQTIASCLCTNLVISQGPFLYCSLMEGTPDVMLFSRPASLSLLSKHLLKSFVCSTKNRRCKLLPLVMAAPLSMEHGTVTVVGIPPETDSSDRKNFFGRAFEKAAESTSSRMLHNHFDLSVIELKAEDRSKFLDALISLLS
